Source: PMC5314774 (Nucleic Acids Research, 2016)

T1: LAGE3 (bacterial, 6xHIS-GST removed) (human, UniProt Q14657 1-143)
T1 sequence: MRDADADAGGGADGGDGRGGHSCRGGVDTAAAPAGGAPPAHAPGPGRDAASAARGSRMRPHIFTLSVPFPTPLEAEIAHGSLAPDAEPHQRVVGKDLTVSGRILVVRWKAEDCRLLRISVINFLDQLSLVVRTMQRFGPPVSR

B1: C14ORF142 (bacterial, GST removed) (natural protein)
chain: MELLGEYVGQEGKPQKLRVSCEAPGDGDPFQGLLSGVAQMKDMVTELFDPLVQGEVQHRVAAAPDEDLDGDDEDDAEDENNIDNRTNFDGPSAKRPKTPS
B2: C14ORF142 (insect cells, polycistronic KEOPS vector) (natural protein)
chain: B1 chain

Key:
[1] = target: T1, LAGE3 (bacterial, 6xHIS-GST removed); assay: SEC
[2] = target: 4-subunit KEOPS complex (OSGEP, PRPK, TPRKB and LAGE3) (human, UniProt Q9NPF4;Q96S44;Q9Y3C4;Q14657); assay: SEC-MALS

| Binder | stoichiometry N [1] | stoichiometry N [2] |
| --- | --- | --- |
| B1 | 1 | – |
| B2 | – | 1 |
